Source: article PMC3101628 (Nature structural & molecular biology, 2011)

Columns and labels:
[1] = molecular target: T1, hRRM1 with the first 74 residues deleted (t-hRRM1) (human, UniProt P23921 75-792); experiment: SEC
T1 sequence (looked up): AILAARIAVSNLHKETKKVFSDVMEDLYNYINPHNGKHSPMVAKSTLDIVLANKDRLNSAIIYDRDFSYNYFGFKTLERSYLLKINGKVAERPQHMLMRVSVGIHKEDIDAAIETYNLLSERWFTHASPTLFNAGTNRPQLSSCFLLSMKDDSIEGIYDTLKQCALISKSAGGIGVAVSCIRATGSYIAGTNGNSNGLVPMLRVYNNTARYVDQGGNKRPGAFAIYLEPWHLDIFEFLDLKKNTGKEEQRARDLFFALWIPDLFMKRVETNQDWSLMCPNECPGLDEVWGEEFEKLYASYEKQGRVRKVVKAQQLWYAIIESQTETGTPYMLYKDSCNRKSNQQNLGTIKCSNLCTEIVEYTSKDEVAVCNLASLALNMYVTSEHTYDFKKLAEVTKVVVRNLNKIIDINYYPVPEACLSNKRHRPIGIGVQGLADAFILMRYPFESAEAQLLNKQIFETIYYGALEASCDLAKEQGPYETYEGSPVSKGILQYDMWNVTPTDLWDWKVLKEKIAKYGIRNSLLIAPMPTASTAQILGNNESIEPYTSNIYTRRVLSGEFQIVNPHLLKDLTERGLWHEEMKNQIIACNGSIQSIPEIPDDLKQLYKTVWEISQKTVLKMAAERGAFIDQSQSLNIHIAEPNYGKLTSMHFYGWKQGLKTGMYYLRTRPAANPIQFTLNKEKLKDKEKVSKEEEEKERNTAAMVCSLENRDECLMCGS

SEC = molecular target: the molecule itself; experiment: SEC

B1: human ribonucleotide reductase small subunit hRRM2 (enzyme, UniProt P31350 1-389, looked up)
chain: MLSLRVPLAPITDPQQLQLSPLKGLSLVDKENTPPALSGTRVLASKTARRIFQEPTEPKTKAAAPGVEDEPLLRENPRRFVIFPIEYHDIWQMYKKAEASFWTAEEVDLSKDIQHWESLKPEERYFISHVLAFFAASDGIVNENLVERFSQEVQITEARCFYGFQIAMENIHSEMYSLLIDTYIKDPKEREFLFNAIETMPCVKKKADWALRWIGDKEATYGERVVAFAAVEGIFFSGSFASIFWLKKRGLMPGLTFSNELISRDEGLHCDFACLMFKHLVHKPSEERVREIIINAVRIEQEFLTEALPVKLIGMNCTLMKQYIEFVADRLMLELGFSKVFRVENPFDFMENISLEGKTNFFEKRVGEYQRMGVMSSPTENSFTLDADF
In the case of B1, the binding result [1] is reported as “binds” and the “stoichiometry N” value (SEC) is reported as 2.
